In the supplement of paper PMC10126150:
± gives the standard deviation of the averaged measurements.

System: ATP
Assay: switch fluorescence ratio, 500 uM ATP over buffer (Cy3 cluster intensity, sum of 5 cycles each) (fold (ratio)); higher = stronger signal-on switching upon ATP binding; sequences stand for … in TCGTCGGCAGCGTCAGATGTGTATAAGAGACAGTTTTTTTTTTTTTTTTTTTTTTTTT…TC
Settings: aptamer strand: ATP DNA aptamer (quencher-CACCTGGGGGAGTATTGCGGAGGAAGG + anchor), 100 nM annealed; ATP concentration: 500 uM
How it was run: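 Between each of five buffer/ATP cycles, the flow-cell was stripped with NaOH and re-annealed. Each cycle imaged Cy3-labelled switching-strand clusters, annealed to 100 nM quencher-labelled ATP aptamer on a modified Illumina MiSeq flow-cell, first in selection buffer and then after 15 min with 500 uM ATP at 22 °C. The fluorescence ratio is summed target-cycle over summed buffer-cycle Cy3 intensity per cluster, averaged per switch-domain sequence, with clusters outside 100-1000 RFU excluded.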
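Also: ATP exposure 15 min at 22 °C before imaging.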

Sequence	switch fluorescence ratio
TTTGGCAGTC	1.1 ± 0.13
TTTGGCCGGA	0.985 ± 0.036
TTTGGGAATA	1.02 ± 0.02
TTTGGGAATT	1.03 ± 0.035
TTTGGGACAG	0.981 ± 0.031
TTTGGGAGGC	1.01 ± 0.034
TTTGGGATT	0.999 ± 0.036
TTTGGGCATA	1.16 ± 0.19
TTTGGGCGCC	1 ± 0.018
TTTGGGCGCT	1.04 ± 0.048
TTTGGGCTGT	1.02 ± 0.021
TTTGGGGAGA	1 ± 0.041
TTTGGGGAGT	1 ± 0.088
TTTGGGGGCC	1.009 ± 0.0061
TTTGGGTAAG	1 ± 0.024
TTTGGGTCAA	1.012 ± 0.0074
TTTGGGTGTT	1.02 ± 0.046
TTTGGGTTAA	1.13 ± 0.29
TTTGGTAGAA	0.996 ± 0.025
TTTGGTCCGG	1.01 ± 0.029
TTTGGTCCTT	1.029 ± 0.0088
TTTGGTGCCC	1.03 ± 0.029
TTTGGTGCTT	0.974 ± 0.045
TTTGGTGTTT	1.01 ± 0.035
TTTGGTTATG	0.982 ± 0.017
TTTGGTTCTT	1.02 ± 0.033

Sequence	switch fluorescence ratio
TTTGGTTGGG	1.03 ± 0.098
TTTGGTTTTC	1.02 ± 0.033
TTTGTAAAGG	0.999 ± 0.013
TTTGTAACCT	1.74 ± 0.035
TTTGTAGAAC	1.02 ± 0.036
TTTGTAGAGT	1.01 ± 0.034
TTTGTAGGAT	1.04 ± 0.014
TTTGTAGTGT	0.999 ± 0.026
TTTGTATAGG	0.98 ± 0.035
TTTGTATGCA	1.04 ± 0.057
TTTGTCGATA	1.05 ± 0.025
TTTGTCGTAT	0.996 ± 0.014
TTTGTGATAA	0.969 ± 0.057
TTTGTGCGCA	1.07 ± 0.08
TTTGTGCTTT	1.01 ± 0.02
TTTGTGGGAT	0.998 ± 0.043
TTTGTGGTTC	1 ± 0.039
TTTGTGTATT	0.97768 ± 0.00065
TTTGTTAACG	0.99 ± 0.013
TTTGTTACGG	0.978 ± 0.046
TTTGTTCACA	1.06 ± 0.043
TTTGTTCATC	0.97 ± 0.024
TTTGTTCGTG	0.96 ± 0.028
TTTGTTGGGC	0.981 ± 0.028
TTTGTTTAAT	1.002 ± 0.0012
TTTGTTTAGG	1.01 ± 0.04

Sequence	switch fluorescence ratio
TTTGTTTGCG	1.03 ± 0.032
TTTGTTTGGT	0.985 ± 0.036
TTTTAAACTG	1.1 ± 0.066
TTTTAAAGAG	0.97 ± 0.024
TTTTAACAAT	1.021 ± 0.0098
TTTTAACCCT	0.998 ± 0.013
TTTTAACGCT	1.01 ± 0.039
TTTTAACTGG	0.988 ± 0.034
TTTTAAGAT	1.02 ± 0.029
TTTTAAGCTG	1.05 ± 0.024
TTTTAAGTTG	1.01 ± 0.045
TTTTAATCGT	0.985 ± 0.063
TTTTACAGAT	0.975 ± 0.017
TTTTACAGTT	1.02 ± 0.023
TTTTACCTTT	1 ± 0.032
TTTTACGAGT	1.06 ± 0.16
TTTTACGCCT	1.02 ± 0.012
TTTTACTAGA	1.032 ± 0.0059
TTTTACTGCT	1.15 ± 0.18
TTTTACTTGT	1.025 ± 0.0037
TTTTAGAATG	1 ± 0.061
TTTTAGGAAG	0.9937 ± 0.0097
TTTTAGGGAG	0.992 ± 0.03
TTTTAGGGCA	1 ± 0.018
TTTTAGGGCC	0.999 ± 0.05
TTTTAGGTCG	0.987 ± 0.013

Sequence	switch fluorescence ratio
TTTTAGTCGG	0.9883 ± 0.0092
TTTTAGTGGC	1.02 ± 0.029
TTTTAGTGGT	0.992 ± 0.014
TTTTAGTGTC	0.998 ± 0.072
TTTTAGTTTA	1.01 ± 0.031
TTTTAGTTTC	1.015 ± 0.0022
TTTTATAAGA	1.05 ± 0.075
TTTTATAAGT	1.03 ± 0.021
TTTTATAGGA	0.976 ± 0.006
TTTTATATAA	1.02 ± 0.039
TTTTATGCTA	1 ± 0.054
TTTTATGGGG	0.968 ± 0.031
TTTTATGTTT	1 ± 0.019
TTTTATTGCT	0.991 ± 0.036
TTTTATTGGA	1 ± 0.03
TTTTATTGGG	0.975 ± 0.031
TTTTATTTCA	0.991 ± 0.021
TTTTCAAAAT	1.08 ± 0.13
TTTTCAATGT	1.04 ± 0.048
TTTTCACCAA	1.03 ± 0.025
TTTTCAGGGG	1.03 ± 0.049
TTTTCATAAG	1 ± 0.011
TTTTCATCTG	1.03 ± 0.098
TTTTCCAAGA	1.09 ± 0.1
TTTTCCCGCA	2.02 ± 0.26
TTTTCCGCGG	1.062 ± 0.0077

Sequence	switch fluorescence ratio
TTTTCCTGAC	1.64 ± 0.25
TTTTCCTGGG	1.03 ± 0.063
TTTTCGCATT	1.23 ± 0.051
TTTTCGGAGT	1.01 ± 0.037
TTTTCGGGGT	0.986 ± 0.025
TTTTCGGGTG	1.05 ± 0.024
TTTTCGTATT	0.988 ± 0.012
TTTTCTCTTT	1.01 ± 0.035
TTTTCTTCTC	1.03 ± 0.028
TTTTGAAACG	0.995 ± 0.025
TTTTGAACGT	1.02 ± 0.043
TTTTGAATTT	0.996 ± 0.032
TTTTGACTTG	0.948 ± 0.0044
TTTTGACTTT	0.998 ± 0.023
TTTTGAGAAA	0.99 ± 0.028
TTTTGAGACG	1.09 ± 0.011
TTTTGAGGCA	1.02 ± 0.027
TTTTGATAAC	0.97 ± 0.036
TTTTGATGCG	0.982 ± 0.031
TTTTGATGTT	0.988 ± 0.031
TTTTGATTGC	1.03 ± 0.037
TTTTGCAGG	0.991 ± 0.05
TTTTGCCCCC	1.12 ± 0.14
TTTTGCTGTG	1.01 ± 0.025
TTTTGCTTTC	1.14 ± 0.1
TTTTGGAAAC	1.11 ± 0.17

Sequence	switch fluorescence ratio
TTTTGGACCC	1.01 ± 0.035
TTTTGGAGAG	1.01 ± 0.016
TTTTGGATAT	1.28 ± 0.42
TTTTGGCACG	0.988 ± 0.0014
TTTTGGCGAC	0.976 ± 0.027
TTTTGGCGTC	0.994 ± 0.023
TTTTGGCTTA	0.9945 ± 0.007
TTTTGGGAAC	1.02 ± 0.037
TTTTGGGACT	1.03 ± 0.019
TTTTGGGAGG	1 ± 0.054
TTTTGGGGTT	0.997 ± 0.043
TTTTGGGTCA	1.02 ± 0.018
TTTTGGTACC	1.02 ± 0.015
TTTTGGTCCT	1.07 ± 0.1
TTTTGGTGGA	0.988 ± 0.014
TTTTGGTTCC	1.01 ± 0.016
TTTTGGTTCG	0.987 ± 0.032
TTTTGGTTG	0.947 ± 0.045
TTTTGTAACG	1 ± 0.034
TTTTGTAAGA	1.03 ± 0.013
TTTTGTATTT	0.988 ± 0.035
TTTTGTCATT	1 ± 0.04
TTTTGTCCAT	0.992 ± 0.015
